From the nanobody polyreactivity screen of Harvey et al. (2022)

Test: yeast display, Sf9 membrane polyspecificity reagent, FACS + sequencing; frameworks hold sequencing errors
Procedure, shortened: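 A synthetic nanobody library was expressed on Saccharomyces cerevisiae BJ5465 by galactose induction for 36–48 hours. The library was stained for 1 hour at 4 °C with 10% biotinylated, detergent-solubilized Sf9 membrane reagent and enriched with streptavidin microbeads before FACS. Low and high (top ~1%) gates were set on anti-HA fluorescence for expression and streptavidin fluorescence for reagent binding, and each polyreactivity label reflects the gate of origin.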

| Sequence | polyreactivity (PSR sort gate) |
| --- | --- |
| QVQLVESGGGLVKAGGSLRLSCAASGSTFGLYVMGWYRQAPGKERELVAAINRIGSRTYYADSVKGRFTISRDNAKNTVYLQMNSLKPEDTAVYYCAADYDYTSPGDDYWGQGTQVTVSS | high polyreactivity |
| QVQLVESGGGLVQAGGSLRLSCAASGFIFRYYAMGWYRQAPGKERELVAAISSRGSTYYADSVKGRFTISRDNAKNTVYLQMNRLKPEYTALYYCAARGGYRLRYIPYVRYDYWGQGTQLTVSS | high polyreactivity |
| QVQLVESGGGLVQAGGSLRLSCDASGSTFSDYAMGWYRQAPGKERELVAAISDSGSGTYYADSVKGRFTISRDNAKNTVYLQMNSLKPEDTAVYYCNTDPRFAMDWGQGTQVTVSS | low polyreactivity |
| QVQLVESGGGLVQAGGSLRLSCAASGRIFKGNGMGWYRQAPGKERELVAAISRSGGNTYYADSVKGRFTISRDNAKNTVYLQMNSLKPEDTAVYYCNVRYYTYRFLRFDYWGQGTQVTVSS | high polyreactivity |
| QEQLQESGGGLVQAGGSLRLSCAASGNIYDADIMGWYRQAPGKERELVTSITDGGSTNYADSVKGRFTISRDNAKNTVYLQMNSLKPEDTAVYYCAAIAYPDIPTSFDYNSDYSYWGQGTQVTVSS | low polyreactivity |
| QVQLVESGGGLVQAGGSLRLTCAASGRIFLINPMGWYRQAPGKDRELVAGIRGRTGSTNYADSVKGRFTISRDNAKNTVYLQMNRLKPEDTAVYYCAARFSVQDGGPYAYDYWGQGTQVTVSS | low polyreactivity |
| QVHLVDSGGGLVQAGGSLRLSCAASGRTFQVYTMGWSRQAPGKERELVAAITWNGGRTRYADSVKGRFTISRDNAKNTVYLQMTSLKPEDTAVYYCNAGNWITARAGFNDWGQGTQVTVSS | high polyreactivity |
| QVQLVESGGGLVQAGGSLRLSCAASGFIFQSYAMGWYRQAPGKERQLVAAISYTGGSTYYADSVKGRFTISRDNAKNTVYLQMNSLKPEDTAVYYCARSYYTNGNALKRDYWGQGTQVTVSS | high polyreactivity |
| QVQLVESGGGILQAGGSLRLSCAASGSIFGGNAMGWYRQAPGKERELVAAITSTVSTNYADSVKGRFTISRDNAKNTVYLQMNSLKPEDTAVYYCANDTSNVEGDYWGQGTQVTVSS | low polyreactivity |
| QVQLVESGVGIVQAGGSLRLSCAASGRISYFNAMGWYRQAPGKERELVAAIRRSGGITYYADSVKGRFTISRDNAKNTVYLQMNSLKPEDTAVYYFATERYSWAERDFGYWGQGTLVTVSS | low polyreactivity |
| QVQLVESGGGLVQAGGSLRLSCAASGRIFRRYAMGWYRQAPGKERELVAAISTRGGSTYYADSVKGRFTISRDNAKNTVYLPMNSLKPEDTAVYYCAAGRDPGYNNDDYWGQGTQVTVSS | high polyreactivity |
| QVQLVESGGGLVQAGGSLRLSCAASGRTFYSYAMGWYRKAPGKERELVAAISASGGRTYYADSVKGRFTISRDNAKNTVYLQMNSLKPEDTAVYYCAAYPWYRMWGQGTQVTVSS | high polyreactivity |
| QVQLVESGGGLVQAGGSLRLSCAASGSTFGVYAMGWYRQAPGKERELVAAINARGTRTRYADSVKGRFTISRDNAKNTVYLQMTSMKPEDTAVYYCAAVWYGYYSIDTDGYWGQGSQVTVSS | high polyreactivity |
| QVQLVESGGGLVQAGGSLRLSCAASGSTFVSYAMGWYRQAPGKERELVAAISISDSSTYYADSVKGRFTISRDNAKKTVYLQMNSLKPEDTAVYYCNRYDYWGQGTQVTVSS | low polyreactivity |
| QVQLVESVGGLFQAGGSLRLSCAASGSIFAYNTMGWYRQAPGKEREFVAAISWRGGSTYYADSVKGHFTISGDNAKNTFYLQMNSLKPEDTAVYYCNARYRNTFYSRRYDYWGQGTQVTVSS | low polyreactivity |
| QVQLVESGGGIVQAGGSLRLSCAASGRILSSYAMGWYRQAPGKERELVARISYSGGRTYYADSVKGRFTISRDNAKNTVYLQMNSQKPEDTAVYYCAAVSRVHFSYIYDYWGQGTQVTVSS | high polyreactivity |
| QVQLVESGGGLVQAGGSLRLSCAASGSIFNSNGMGWYRPAPGKERELVAAITGGGSTNYADSVKGRFTISRDNAKNTVYLQMNSLKPEDTAVYYCAARPLRTDWAYYYWGQGTQVTVSS | low polyreactivity |
| QVQLVESGGGLVQAGGSLRLSCAASGITFSSYAMGWSRQAPGKERELVAAITSRGGSTYYADSVKGRFTISRDNAKNTVYLQMNSLKPEDTAVYYCNASRVRRWNDYYKKFDYWGQGTQVTVSS | high polyreactivity |
| QVQIVESGGGLVQAGGSLRLSCAASGFTLHRNAMGWYRQAPGKERELVANISWTGGSTYYADSVKGRFTISRDNAKNTVYLQMNSLKPEDTAVYYCAARGHWSIYGYYYLGATAFGYWGQGTQVTVSS | low polyreactivity |
| QVQLVESGGGLVQAGGSLRLSCAASGRTFSFYAMVWYRQAPGKERELVAGIDWDDGSTSYADSVKGRFTISRDNAKNTVYLQMNSLKQEDTAVCYCAADIGYDVYNDYDYWGQGTQVTVSS | low polyreactivity |
| QVQLVESGGGLVQAGGSLRLSCAASGRTFHPYAMGWYRQAPGKERELVAAITISTNYADSVKGRFTISRDNAKNTVYLQMNSLKPEDTAVYYCNKDGTHEVYVGGYEDDYWGQGTQVTVSS | low polyreactivity |
| QVQLVESGGGLVQAGGSLRLTSADTGFNFGSYAMGWSRQAHGKEREFVAAISSNGGNTYYADSVKGRFTISRDNAKNTVYLEINSLKPEDTAVSYCAARYPSGTRKWYGYWGQGTQVTVSS | high polyreactivity |

| Sequence | polyreactivity (PSR sort gate) |
| --- | --- |
| HVQLVESGGGIVQAGGSLRLSCAASGSTYVTNDMGSYRQAPGKERELVAAIYSGTSTNYADSVKGRFTISRDNAKNTVYLQMNSLKPEDTAVYYCAADSLKRYDYWGQGTQVSVSS | low polyreactivity |
| QVQLEESGGGLVQAGGSLRLSCAASGRIFYDYAMGWYRKAPGKERELVATISWSAGIKYYADSVKGRFTISRDNAKNTVYLQMNSLKPEDTAVYYCAKVGRYTYSGQYDYWGQGTQVTVSS | high polyreactivity |
| QVQLVESGGGLVQAGGSLRLSCAASGFTLKQYAMGWYRQAPGKERELVAAIRWSGGSTNYADSVKGRFTISRDNAKNTVYLQMNSLKPEDTAVYYCAADFRTPYFGIRYGYWGQGTQVTVSS | high polyreactivity |
| QVQLVESGGGLVQAGGSLRLSCAASGSTSERYDMGWYRQAPGKERELVATITWSGGDTHYADSVKGRFTISRDNAKNTVYLQMNSLKPVDTAVYYCAAEYTFVWGLWYDYWGQGTQVTVSS | low polyreactivity |
| QVQLVESGGGLVQAGGSLRLSCAASGRIFRFNAMGWYRQAPGKERELVAAITGSGGTTFYADSVKGRFTISRDNAKNTVYLQMNSLKPEDTAVYYCARQRTVKKYYYWGQGTQVTVSS | high polyreactivity |
| QVQLVESGGGLVQAGGSLRLSCAASGITFWANAMGWYRQAPGKERELVASIRSSGGSTYYADSVKGRFTISRDNAKNTVYLQMNSLKPEDTAVYYCNARLGPLYVYRQYDSWGQGTQVTVSS | low polyreactivity |
| QVQLVESGGGLVQAGGSLRLSCAASGYTFWQYAMGWYRQAPGKERELVAAISGSGGRTYYADSVKGRFTISRDNAKNPVYLQMHSLKPEDTAVYYCAVGYRTPYLSRGGYWGQGTQVTVSS | high polyreactivity |
| QVQLVESGGGLVQAGGSLRLSCAASGRIFNPNAMGWYRQAPGKERELVAAITSGDSTNYADSVKGRFTISRDNAKNTVYLQMNSLKPEDTAVYYCAAGPSKRPPWLRQGGYDYWGQGTQVTVSS | low polyreactivity |
| QVQLVESGGGLGQAGGSLRLSCAASGYTFGKYAMGWYRPAPGKERELVAAISWSGGSTYYADSVKGRFTISRDNAKNTVYLQMNSLKPEDTAVYYCNIGYIGRYGYWGQGTQVTVSS | high polyreactivity |
| QVQLVESGGGLVQAGGSLRLSCAASGRILAYYAMGWYRQAPGKERELVARISGSGTSTYYADSVKGRFTISRDNAKNTVYLQMNSLKPEDTGVYYCAATYYRGGRSNGPAWWHEYWGQGTQVTVSS | high polyreactivity |
| QVQLVESGGGLVQAGGSLRLSCAASGRIFVKNAMGWYRQAPGKERELVATISSGGNTNYADSVKGRFTISRDNAKNTVYLQMNSLKPEDTAVYYCAAVWDLGDYELPYDYWGQGTQVTVSS | low polyreactivity |
| QVQLVESGGSLVQAGGSLRLICAASGFIFWTYAMGWYRQAPGKERELVARISWSGGSTYYADSVKGRFTNSRDNAKNTVYLQMNSLKPEDTAVYYCAALTESSSYGYWGQGTQVTVSS | low polyreactivity |
| QVQLVESGGGLVQAGGSLRLSCAASGSTFRYYAMGWYRQAPGKERELVATISSGGSTNYADSVKGRFTISRDNAKNTVYLQMNSLKPEDTAVYYCAAAYPQFWYWDYNYWGQGTQVTVSS | high polyreactivity |
| QVQLVESGGGLVQAGGSLRLSCAASGSIFYRYAMGWYRQAPGKERELVATITRRGGTTYYADSVKGRFTISRDNAKNTVYLKMNSLKPEDTAVYYCARPYLRASYGAIDYDYWGQGTQVTVSS | high polyreactivity |
| QVQLVESGGGLVQAGGSLRLSCAASGRTFYWYAMGWYRQAPGKERELVAAITSGGSTNYADSVKGRFTISRDNAKNTVYLQMNSLKPEDTAVYYCAARRSVRRGGDYYWGQGTQVTVSS | high polyreactivity |
| QVQLVESGGGLVQAGGSLRLICAASGIFASYAMGWYRQAPGKERELVAAIRSSGGRTYYADSVKGRFTISRDNAKNTVYLQMNSLKPEDTAVYYCAVASGQSFYWGQGTQVTVSS | high polyreactivity |
| QVQLVESGGGLVQAGGSLRLSCAASGRIYWNDMGWYRQAPGKERELVAAISWGGDRTYYADSVKGRFTISRDNAKNSFYLQMNSLKPEDTAVYYFNAPGYLTYDHSYDYWGQGTQVTVSS | low polyreactivity |
| QVQLVESGGGLVQAGGSLRLSCAASGRIFKVYAMGWYIQAPGKERELVAVISRGGSTYYADSVKGRFTISRDNAKNTVYLQMNSLKPEDTAVYYCAARLTYTGGQGAYDYWGQGTQVTVSS | high polyreactivity |
| QVQLVETGGGLVQAGGSLRLCCAASGRIFWYNAMGWYRPAPGKERELVAAISSIDGTTYYADSVKGRFTISRDNAKNTVYLQMNSLKPEDTAVYYCAAEDPADQYDYWGQGTQVTVSS | high polyreactivity |
| QVQHVESGGGLVQAGRSLRLSCAATGYIFWKNAMGWYRQAPGKERELVAGITIRGGRTYYADSVKGRFTISRDNAKNTVYLQMNSLKPEDTAVYYCAAGTGVSRYRYVYWGQGTQVTVSS | high polyreactivity |
| QVQLVESGGGLVQAGGSLRLSCAASGFIFQYYAMGWYRQAPGKERELVAAISFSGGSTYYADSVKGRFTISRANAKNTVYLPMNSLKPEDTAVYYCAAEVYSGGDYSGHDYYWGQGTQVTVSS | low polyreactivity |
